In the assay the target is T1, N-Terminal methyltransferase 1 (NTMT1), wild type (UniProt Q9BV86 1-223).
T1 construct: N-terminal methyltransferase 1 (NTMT1), wild type; they probably stand in the ESI; also called wt NTMT1
T1 sequence (looked up): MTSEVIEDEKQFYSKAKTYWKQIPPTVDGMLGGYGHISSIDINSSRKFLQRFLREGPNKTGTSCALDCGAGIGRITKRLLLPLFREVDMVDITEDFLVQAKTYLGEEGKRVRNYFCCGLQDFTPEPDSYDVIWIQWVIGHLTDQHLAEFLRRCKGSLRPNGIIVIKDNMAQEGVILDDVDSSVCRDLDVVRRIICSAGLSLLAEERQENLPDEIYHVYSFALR
The experiment in a line: ITC; affinity of RCC1 peptide with wt NTMT1; conditions, and which of the two was titrated, not told in the text shown. The settings on record: both partners purified.

B1: RCC1p, peptide of the first 10 N-terminal residues of RCC1 after initial methionine removal (peptide, UniProt P18754 2-11, looked up)
peptide: SPKRIAKRRS
notes: RCC1, the first 10 N-terminal residues after removal of the initial methionine (residues 2-11 counted with the methionine as 1); also called RCC1 peptide; source: synthetic peptide
As to B1, the Kd turned out to be 1220 ± 20 nM.
